Results from patent publication US20190092872A1 (Hoffmann-La Roche, published 2019).

How the values were obtained:
FcγRI [1] = biological target: T1, FcγRI (UniProt P12314 16-288, limits assumed); experiment: SPR steady state affinity fit, FcγRI captured on anti-His antibody; beside it offset (RU) 26.88 and Chi² (RU²) 7.76
T1 construct: Captured from a 100 nM solution on immobilized anti-His antibody; also called FcγRI receptor; FcγRIa
Experimental: (§1) Biacore T100 system (GE Healthcare) with high immobilized anti-His capturing antibody (GE Healthcare). Immobilization of the anti-His capturing antibody was performed on a CMS chip using the standard amine coupling kit (GE Healthcare) at pH 4.5 10 mM sodium acetate and 10 μg/ml anti-His solution. The immobilization level of anti-His reached more than 10.000 RU. FcγRI was applied in a 100 nM solution, in the running buffer HBS-P+ and captured with a pulse of 60 sec at a flow rate of 30 μl per min. […] The dissociation phase was monitored for 180 sec. The surface was regenerated by a 60 sec washing step with a 10 mM Glycine pH 1.5 at a flow rate of 30 μl per min. The stabilization period took 60 sec. The Biacore T100 evaluation software was used for data analysis.
(§2) For the steady state affinity concentration determination the response values from the end of association were used to plot the response against the concentration. The Biacore T100 evaluation software was used to calculate the affinity of samples for immobilized FcγRI receptor from the plot.

FcγRIIIA = biological target: T2, FcγRIIIA (UniProt P08637 17-208, limits assumed); experiment: SPR (Biacore T100), FcγRIIIA with His tag captured on immobilised anti-His antibody, antibody injected (Example 9)
T2 construct: Captured from a 200 nM solution on immobilized anti-His antibody; also called CD16
Experimental: The SPR interaction analysis of captured FcγRIIIA and IgG1 Fc variants was performed on a Biacore T100 system (GE Healthcare) with high immobilized anti-His capturing antibody (GE Healthcare). Immobilization of the anti-His capturing antibody was performed on a CMS chip using the standard amine coupling kit (GE Healthcare) at pH 4.5 10 mM sodium acetate and 10 μg/ml anti-His solution. The immobilization level of anti-His reached more than 10.000 RU. FcγRIIIA was applied in a 200 nM solution, in the running buffer HBS-P+ and captured with a pulse of 60 sec at a flow rate of 30 μl per min. […] The dissociation phase was monitored for 180 sec. The surface was regenerated by a 60 sec washing step with a 10 mM Glycine pH 1.5 at a flow rate of 30 μl per min. The stabilization period took 60 sec. The Biacore T100 evaluation software was used for data analysis.

FcγRI [2] = biological target: T1, FcγRI; experiment: SPR steady state affinity; reference is the IgG1 Wt affinity for FcγRI
Experimental: as §1, §2

FcγRI [3] = biological target: T1, FcγRI; experiment: SPR steady state affinity (Biacore T100), FcγRI captured via anti-His antibody, antibody 1000-62.5 nM
Experimental: as §1, §2

T1 sequence (P12314 16-288 limits assumed): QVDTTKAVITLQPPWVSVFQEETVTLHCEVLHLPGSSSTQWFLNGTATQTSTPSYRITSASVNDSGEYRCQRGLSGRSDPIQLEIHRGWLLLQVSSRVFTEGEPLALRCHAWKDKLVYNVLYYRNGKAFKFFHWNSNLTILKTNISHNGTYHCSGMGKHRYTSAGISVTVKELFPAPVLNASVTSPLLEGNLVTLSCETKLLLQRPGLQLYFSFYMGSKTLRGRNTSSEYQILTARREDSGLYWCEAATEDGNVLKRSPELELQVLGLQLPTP
T2 sequence (P08637 17-208 limits assumed): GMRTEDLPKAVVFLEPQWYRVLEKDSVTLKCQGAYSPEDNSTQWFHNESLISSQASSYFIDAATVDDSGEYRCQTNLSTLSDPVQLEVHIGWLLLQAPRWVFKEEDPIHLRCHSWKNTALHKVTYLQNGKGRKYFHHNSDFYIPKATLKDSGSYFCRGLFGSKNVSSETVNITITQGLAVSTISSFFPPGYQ

Kd (FcγRI [1]): 234 nM
binding result (FcγRIIIA): no binding (tested: 1000 nM)
fold below the IgG1 Wt affinity (FcγRI [2]): ~50 fold
Kd (FcγRI [3]): 234 nM
B1: obinutuzumab N297D (antibody)
heavy: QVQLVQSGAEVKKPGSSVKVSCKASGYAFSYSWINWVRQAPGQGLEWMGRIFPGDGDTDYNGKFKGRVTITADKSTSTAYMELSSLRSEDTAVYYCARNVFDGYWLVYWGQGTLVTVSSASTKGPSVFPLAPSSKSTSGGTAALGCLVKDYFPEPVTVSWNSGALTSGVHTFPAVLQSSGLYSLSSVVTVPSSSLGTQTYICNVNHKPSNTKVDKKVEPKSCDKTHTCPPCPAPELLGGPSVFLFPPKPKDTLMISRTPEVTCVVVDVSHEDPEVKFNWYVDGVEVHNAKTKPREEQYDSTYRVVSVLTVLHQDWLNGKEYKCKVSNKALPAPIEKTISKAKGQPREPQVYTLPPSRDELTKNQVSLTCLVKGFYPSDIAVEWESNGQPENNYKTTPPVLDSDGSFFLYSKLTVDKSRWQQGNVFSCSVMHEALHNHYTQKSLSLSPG
VL: DIVMTQTPLSLPVTPGEPASISCRSSKSLLHSNGITYLYWYLQKPGQSPQLLIYQMSNLVSGVPDRFSGSGSGTDFTLKISRVEAEDVGVYYCAQNLELPYTFGGGTKVEIK
modifications: N297D removes the Fc N-glycosylation site, so the antibody is aglycosylated ('aglyco').
notes: IgG1 expressed in HEK-EBNA or HEK293 and purified by protein A and size exclusion chromatography; also called GA101 N297D; GA101 aglyco (N297D)
